B1: LINE1-full (parent)
chain: UACGUAGGUGGUUUUCCCCUGAUAGUGCUAAGGGGGCCUGGAAGUUUGGACUGGGCAGAGCUCAACACAGCGUGGCAAAGUGGCUGUGGCUAGACUGCCUCUCUGGAUUCCUCGUCACUCAGCAGGGCAUCUCUGAGAGAAAUGCC

Variants of: B1
Assay: self-cleavage, relative activity (ratio to wild type); higher = more cleavage; in vitro, sequencing; the parent is a self-cleaving ribozyme

Row | Variant | self-cleavage
1 | U47C G105A | 1.45
2 | U47G U134C | 0
3 | A50G G93U | 0.05
4 | U47G A107G | 1.24
5 | A50G A65G | 0.14
6 | A50G A65U | 0.24
7 | A50G A65C | 0.1
8 | C51G C71U | 1.5
9 | A50U U85A | 0.05
10 | G48U A57U | 0.08
11 | G48A A65G | 0.03
12 | U47C U130A | 1.31
13 | U47C U130C | 1.63
14 | C51U A67G | 0.5
15 | A50U U132C | 1.05
16 | A50G A79C | 1.02
17 | A50G A79G | 1
18 | G49A U102C | 1.11
19 | A50G A141G | 1
20 | A50G A141U | 1.54
21 | U47G U130C | 1.24
22 | A50U U143C | 1.16
23 | U47C U143C | 1.57
24 | C51U U115C | 1.98

Row | Variant | self-cleavage
25 | G48A C131G | 0.17
26 | A50U U62C | 0.04
27 | U52A A59U | 0.4
28 | U52A A59G | 0.03
29 | A50C G82A | 2.06
30 | G49U U108C | 1.5
31 | A50G U119A | 0.96
32 | G48A G125A | 1.38
33 | G49U U96C | 0.11
34 | G49U U96A | 0.02
35 | A50U C90U | 0.05
36 | G48U A117G | 1.13
37 | U47C C98U | 0.52
38 | A50G U81A | 1.3
39 | A50G U81C | 0.7
40 | A50G G106A | 1.41
41 | G49U U132C | 1.06
42 | G49U U132A | 1.31
43 | G48A G49U | 0.57
44 | C51A U100C | 1.93
45 | U47C A136U | 1.24
46 | U47C A136C | 1.09
47 | C51U U132C | 0.69
48 | A50G G105C | 1.11

Row | Variant | self-cleavage
49 | A50G G105A | 0.43
50 | C51A U73G | 0.69
51 | A50G U108C | 1.2
52 | U47C G88A | 0.07
53 | G48A U130A | 0.91
54 | G49U A92G | 0.04
55 | A50U A140G | 1.05
56 | A50G U96G | 0.26
57 | U47C A57U | 0.29
58 | A50G A67U | 0.1
59 | A50G A67C | 0
60 | U47G C113A | 1.6
61 | A50C A57U | 0
62 | A50U C146U | 1.07
63 | U47C U108G | 1.41
64 | U47C U108C | 1.62
65 | A50G A129G | 1.22
66 | A50G A129U | 0.26
67 | A50G A129C | 0.75
68 | U47C G75C | 0.97
69 | G49A A117G | 1.24
70 | G49A A141G | 1.64
71 | U47C U73C | 1.55
72 | U47C U73G | 1.38

Row | Variant | self-cleavage
73 | U47C U73A | 2.06
74 | U47C A138U | 1.52
75 | U47G G135A | 0.79
76 | A50U A79G | 1.27
77 | A50U A79C | 1.3
78 | G49A G82U | 1.49
79 | G49U A124U | 1.59
80 | U47C U132A | 0.93
81 | U47C U132C | 1.62
82 | G49A A77U | 0.86
83 | U47C C113A | 1.78
84 | A50U U73C | 2.09
85 | U47G G48U | 0.74
86 | G48A U143A | 1.64
87 | U47C A117C | 1.96
88 | G49U A65C | 0.04
89 | G49A G122C | 1.28
90 | A50G A138G | 1.2
91 | A50G A138C | 1.12
92 | U47C C84U | 0.38
93 | U47C C84G | 0.11
94 | U47C U96G | 0.05
95 | U47C U96C | 0.25
96 | C51A U108A | 1.31

Row | Variant | self-cleavage
97 | U47C A50C | 0.94
98 | U47C A50G | 1.14
99 | U47C A78C | 1.96
100 | U47C A78U | 1.89
101 | G48A A77G | 1.73
102 | G48A U132C | 1.29
103 | G48A U132A | 1.38
104 | G49A U143C | 1.09
105 | G49A U143G | 1.1
106 | U47C A94C | 0.12
107 | U47C A94U | 0.52
108 | U47C U109C | 1.61
109 | U47C U109A | 1.6
110 | A50C G122C | 1.1
111 | C51U A64U | 0.46
112 | G49C A59G | 0.12
113 | G48A G93U | 0.03
114 | U47C U85G | 0.32
115 | A50C C103U | 1.37
116 | G48A A141G | 1.42
117 | C51U C90A | 0.01
118 | U47G A65C | 0
119 | A50U A121G | 1.09
120 | U47C A92U | 0.77

Row | Variant | self-cleavage
121 | C51U U73A | 1.48
122 | U47C U102A | 1.84
123 | C51U A136G | 1.34
124 | U47C A107G | 1.43
125 | A50U A69C | 0.04
126 | U47C A79G | 1.39
127 | U47C U62C | 0.12
128 | U47C U62A | 0.04
129 | A50U U109A | 0.78
130 | A50G C123U | 0.43
131 | U47C A65G | 0.09
132 | U47C A65C | 0
133 | U47G A77U | 0.94
134 | U47G A77G | 1.09
135 | A50G G144C | 0.83
136 | A50G G144A | 1.46
137 | A50G G144U | 0.25
138 | G49A A107G | 0.73
139 | G48A A129G | 1.54
140 | A50G A107U | 1.24
141 | U47G G97A | 0.05
142 | A50G A94G | 0.32
143 | A50G A94U | 0.27
144 | G48A U134A | 0.83

Row | Variant | self-cleavage
145 | A50U U81A | 1.1
146 | A50U U81G | 0.74
147 | U47G U112C | 0.8
148 | U47G U112A | 0.94
149 | G49A A79G | 0.97
150 | C51U U130C | 1.4
151 | U47C G114A | 1.66
152 | C51U U104C | 1.62
153 | A50G U102C | 1.51
154 | A50C U112C | 1.36
155 | A50G G122A | 0.83
156 | U47C G60A | 0.03
157 | U47G A129U | 0.53
158 | U47G A124G | 0.56
159 | A50U A94U | 0.27
160 | U47G U52A | 1.18
161 | A50G A92U | 0.37
162 | A50C C120U | 1.66
163 | A50U U104C | 1.03
164 | C51U A121G | 1.85
165 | U47C U52A | 1.72
166 | A50U G86A | 0.06
167 | A50U A67G | 0.33

From the RNAGym collection of RNA variant scans (doi:10.7554/elife.90254)
